Test results from patent US20210139581A1 (Alector, published 2021).
Like-named read-outs stand apart in the source and are kept apart here.

Tests used:
[1] = molecular target: T1, human CD33 on primary human monocyte-derived dendritic cells (human, UniProt P20138 18-364); assay: cell-based or functional assay
human CD33 [2] = molecular target: T2, human CD33 (human, UniProt P20138 18-259, limits assumed); assay: SPR (BIAcore), Fab over CD33 on C1 chip
T2 construct: Human CD33 immobilized on the BLI sensor tip or the BIAcore C1 chip; also called Siglec-3
T2 sequence (P20138 18-259 limits assumed): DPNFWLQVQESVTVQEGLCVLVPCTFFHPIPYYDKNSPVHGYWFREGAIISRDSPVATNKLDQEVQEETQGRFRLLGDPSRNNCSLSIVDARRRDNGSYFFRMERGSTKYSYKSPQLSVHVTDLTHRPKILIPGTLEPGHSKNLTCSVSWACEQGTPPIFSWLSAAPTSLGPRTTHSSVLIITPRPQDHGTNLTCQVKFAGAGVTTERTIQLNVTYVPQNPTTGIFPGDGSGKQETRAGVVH
Experimental: The affinity parameters for 10 of the 88 humanized antibodies (AB-H1, AB-H3, AB-H6, AB-H11, AB-H22, AB-H24, AB-H26, AB-H63, AB-H64, and AB-H71) were measured in a separate experiment by a more sensitive technique, surface plasmon resonance (BIAcore), and compared to Chimeric Ab and Chimeric Ab #2. BIAcore measurements were performed as follows: human CD33 was immobilized on the surface of a C1 chip, and Fabs were injected for 300 s to monitor association, followed by a 900 s flow in running buffer to monitor dissociation. The Fabs were measured at 5 concentrations: a high concentration of 27 nM and 3-fold serial dilutions.
In a separate experiment, as determined by the more sensitive BIAcore technique, affinity parameters of affinity matured antibodies derived from the humanized antibody AB-H64 were measured and were directly compared to that of the Chimeric Ab, according to the method described in Example 1 above.

human CD33 [3] = molecular target: T2, human CD33; assay: SPR (BIAcore), Fab over CD33 on C1 chip; remark: listed apart in the source
human CD33 [4] = molecular target: T2, human CD33; assay: BLI (ForteBio), Fab 100 nM on immobilized CD33
Experimental: (§1) The affinities (KD) of the humanized antibodies for human CD33 were measured for each antibody by BioLayer Interferometry in a ForteBio assay according to standard techniques (Estep et al. (2013) MAbs 5(2): 270-8). […] The assay was carried out at room temperature.

[5] = molecular target: T1, human CD33 on primary human …; assay: cell-based or functional assay; remark: listed apart in the source
[6] = molecular target: T1, human CD33 on primary human …; assay: cell-based or functional assay; remark: listed apart in the source
human CD33 [7] = molecular target: T2, human CD33; assay: BLI (ForteBio), Fab 100 nM on immobilized CD33; remark: listed apart in the source
[8] = molecular target: T1, human CD33 on primary human …; assay: cell-based or functional assay; remark: listed apart in the source
human CD33 [9] = molecular target: T2, human CD33; assay: BLI (ForteBio), Fab 100 nM on immobilized CD33; remark: listed apart in the source
Experimental: as §1
The affinities of AB-H64 and its variants (Table 5) for human CD33 were measured by Fortebio assay according to the method described in Example 1 above.

[10] = molecular target: T1, human CD33 on primary human …; assay: cell-based or functional assay; remark: listed apart in the source
human CD33 [11] = molecular target: T2, human CD33; assay: BLI (ForteBio), Fab 100 nM on immobilized CD33; remark: listed apart in the source
Experimental: as §1
The affinity parameters of two of the antibodies, 64.1.2 and 64.1.8, were measured in a separate experiment by BIAcore, where they were directly compared to the parental antibody, AB-64.1, the parental humanized antibody, AB-H64, and the Chimeric Ab.

[12] = molecular target: T1, human CD33 on primary human …; assay: cell-based or functional assay; remark: listed apart in the source
human CD33 [13] = molecular target: T2, human CD33; assay: ligand-blocking red blood cell solid adhesion assay: antibody pre-incubated on plate-bound CD33-Fc, then binding of red blood cells (sialic acid-containing CD33 ligands) read as peroxidase activity (TMB, 450 nm), relative to no antibody; blocked ligand: CD33 ligands on red blood cells
Experimental: The affinity matured antibody, AB-64.1 and two of its variants, AB-64.1.2 and AB-64.1.8, were evaluated for their ability to compete with CD33 ligand for binding to CD33 using a red blood cell (RBC) solid adhesion assay, according to standard protocols (Kelm, et al. Current Biology, 1994). Red blood cells are highly decorated with glycoproteins containing sialic acids; therefore the ability of an antibody to block RBC binding to immobilized CD33 was used to determine ligand interference. Briefly, 96-well Immunolon plates were coated overnight with 5 μg/mL CD33-Fc, then were washed with PBS and blocked for one hour with binding buffer (PBS containing 0.25% BSA and 1 mM CaCl₂)). CD33 antibodies were added and incubated for one hour at room temperature with gentle rocking. After removal of unbound antibody, RBCs were added to each well at 3.0×10⁶ cells/mL and incubated at room temperature for one hour. Unbound RBCs were then carefully removed by washing three times with PBS, after which water was added to each well to induce hypotonic lysis of bound RBCs. The plate was transferred to −80° C. for 10 minutes, followed by 37° C. for 15 minutes. Quantification of bound RBCs was measured as peroxidase activity by adding TMB, followed by the addition of 2N sulfuric acid to stop the reaction. Signal was detected at 450 nm. Data was calculated as a percentage of RBC binding to plate-bound CD33-Fc in the absence of antibody.

[14] = molecular target: T1, human CD33 on primary human …; assay: cell-based or functional assay; remark: listed apart in the source
[15] = molecular target: T1, human CD33 on primary human …; assay: cell-based or functional assay; remark: listed apart in the source
human CD33 [16] = molecular target: T2, human CD33; assay: BLI (ForteBio), Fab 100 nM on immobilized CD33; kon/koff columns printed 3 rows too low, assigned by koff/kon = printed KD of AB-63.4
Experimental: as §1
The affinities of AB-H14 and its affinity-matured variants (Table 15) and AB-H63 and its affinity-matured variants (Table 16), for human CD33 were measured by Fortebio assay according to the method described in Example 1 above.

T1 sequence (P20138 18-364): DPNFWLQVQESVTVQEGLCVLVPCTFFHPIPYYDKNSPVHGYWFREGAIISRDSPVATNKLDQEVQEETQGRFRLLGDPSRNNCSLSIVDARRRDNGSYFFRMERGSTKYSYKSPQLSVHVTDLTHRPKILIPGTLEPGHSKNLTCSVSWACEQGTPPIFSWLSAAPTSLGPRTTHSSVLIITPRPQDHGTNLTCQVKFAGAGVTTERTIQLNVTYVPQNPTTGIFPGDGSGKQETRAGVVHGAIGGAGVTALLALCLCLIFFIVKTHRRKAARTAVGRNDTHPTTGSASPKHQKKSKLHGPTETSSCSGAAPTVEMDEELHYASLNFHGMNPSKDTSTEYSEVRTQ

Receptor downregulation (EC50) [1] [nM] | Kd (human CD33 [2]) [nM] | koff (human CD33 [2]) [s⁻¹] | kon (human CD33 [2]) [M⁻¹ s⁻¹] | Kd (human CD33 [4]) [nM] | Maximal Downregulation (% CD33 remaining) [6] [%] | Receptor downregulation (EC50) [6] [nM] | Receptor downregulation (% remaining at 0.16 µg/mL antibody) [10] [%] | Fold Change to AB-H64 (human CD33 [2]) [fold] | Fold Change to Chimeric Ab (human CD33 [2]) [fold] | Kd (human CD33 [11]) [nM] | EC50 (human CD33 [13]) [nM] | Binder | other results
0.0743 | 1.63 | 0.00162 | 995000 | 5.22 | 24.1 | 0.0869 |  |  |  |  |  | Chimeric Ab (antibody, V domains shown, Chimeric antibody with the variable regions of murine 2F5.1; also called parental antibody; comparator antibody) VH: EVQLQQSGPELVKPGASVKISCKASGYTFTDYNLHWVKLSHGKSLEWIGFIYPSNGITGYNQKFKNKATLTVDNSSSTAYMELRSLTSEDSAVYYCARSTVDYFDYWGQGTTLTVSS VL: DIVLTQSPASLAVSLGQRATMSCRASQSVSTSTYSYMHWYQQKPGQPPKLLIKYASNLESGVPARFSGSGSGTDFTLNIHPVEEEDTATYYCQHSWEIPLTFGAGTKLELK | Kd (human CD33 [3]): 1.63 nM; koff (human CD33 [3]): 0.00162 s⁻¹; kon (human CD33 [3]): 995000 M⁻¹ s⁻¹; Maximal Downregulation (% CD33 remaining) [5]: 24.1%; Receptor downregulation (EC50) [5]: 0.0869 nM
0.042 |  |  |  | 3.42 |  |  |  |  |  |  |  | AB-H14 (antibody, V domains shown, Humanized variant of murine 2F5.1) VH: QVQLVQSGAEVKKPGASVKVSCKASGYTFTDYNLHWVRQAPGQGLEWIGFIYPSNGITGYAQKFQGRVTMTVDTSTSTVYMELSSLRSEDTAVYYCARSTVDYFDYWGQGTLVTVSS VL: DIQMTQSPSSLSASVGDRVTITCRASQSVSTSTYSYMHWYQQKPGKAPKLLIKYASNLESGVPSRFSGSGSGTDFTLTISSLQPEDFATYYCQHSWEIPLTFGQGTKLEIK | Kd (human CD33 [7]): 2.91 nM; koff (human CD33 [7]): 0.00115 s⁻¹; kon (human CD33 [7]): 397000 M⁻¹ s⁻¹; Maximal Downregulation (% CD33 remaining) [8]: 15%; Receptor downregulation (EC50) [8]: 0.151 nM
 | 0.105 | 0.000485 | 4.61e+06 |  | 27.3 | 0.0154 | 37.2 | 20.4 | 15.4 | 0.499 | 0.71 | AB-64.1 (antibody, V domains shown) VH: QVQLVQSGAEVKKPGASVKISCKASGYTFTDYNLHWVRQAPGQGLEWIGFIYPSNGITGYAQKFQGRATLTVDNSTSTAYMELSSLRSEDTAVYYCARSDVDYFDYWGQGTLLTVSS VL: DIVLTQSPDSLAVSLGERATINCRASQSVSTSTYSYMHWYQQKPGQPPKLLIKYASNLESGVPDRFSGSGSGTDFTLTISSLQAEDVAVYYCQHSWEIPLTFGQGTKLEIK | Fold affinity improvement over parental Ab (AB-H64) (human CD33 [9]): 3.23 fold; Kd (human CD33 [9]): 0.885 nM; Receptor downregulation (EC50) [12]: 0.0185 nM
0.0137 | 2.15 | 0.00221 | 1.03e+06 | 4.08 | 22.4 | 0.029 |  |  | 0.76 |  |  | AB-H64 (antibody, V domains shown, Humanized variant of murine 2F5.1; also called parental humanized antibody) VH: QVQLVQSGAEVKKPGASVKISCKASGYTFTDYNLHWVRQAPGQGLEWIGFIYPSNGITGYAQKFQGRATLTVDNSTSTAYMELSSLRSEDTAVYYCARSTVDYFDYWGQGTLLTVSS VL: DIVLTQSPDSLAVSLGERATINCRASQSVSTSTYSYMHWYQQKPGQPPKLLIKYASNLESGVPDRFSGSGSGTDFTLTISSLQAEDVAVYYCQHSWEIPLTFGQGTKLEIK | Kd (human CD33 [9]): 2.86 nM; Fold Change to Chimeric Ab (human CD33 [3]): 0.76 fold; Kd (human CD33 [3]): 2.15 nM; koff (human CD33 [3]): 0.00221 s⁻¹; kon (human CD33 [3]): 1.03e+06 M⁻¹ s⁻¹; Receptor downregulation (EC50) [12]: 0.0366 nM; Maximal Downregulation (% CD33 remaining) [5]: 22.4%; Receptor downregulation (EC50) [5]: 0.029 nM
 | 0.185 | 0.000507 | 2.74e+06 |  | 24.8 | 0.0189 | 32.4 | 11.6 | 8.8 | 0.902 | 0.55 | AB-64.1.2 (antibody, V domains shown, Variant of AB-64.1) VH: QVQLVQSGAEVKKPGASVKISCKASGYTFTDYNLHWVRQAPGQGLEWIGFIYPSNRITGYAQKFQGRATLTVDNSTSTAYMELSSLRSEDTAVYYCARSDVDYFDYWGQGTLLTVSS VL: DIVLTQSPDSLAVSLGERATINCRASQSVSTSTYSYMHWYQQKPGQPPKLLIKYASNLESGVPDRFSGSGSGTDFTLTISSLQAEDVAVYYCQHSWEIPLTFGQGTKLEIK | fold increase in potency in decreasing cell surface CD33, against AB-H64 [14]: 1.5 fold; fold increase in potency in decreasing cell surface CD33, against Chimeric Ab [14]: 4.6 fold
 | 0.175 | 0.000634 | 3.62e+06 |  | 30.1 | 0.0282 | 32.7 | 12.3 | 9.29 | 0.802 | 0.62 | AB-64.1.8 (antibody, V domains shown, Variant of AB-64.1) VH: QVQLVQSGAEVKKPGASVKISCKASGYTFTDYNLHWVRQAPGQGLEWIGFIYPSNQITGYAQKFQGRATLTVDNSASTAYMELSSLRSEDTAVYYCARSDVDYFDYWGQGTLLTVSS VL: DIVLTQSPDSLAVSLGERATINCRASQSVSTSTYSYMHWYQQKPGQPPKLLIKYASNLESGVPDRFSGSGSGTDFTLTISSLQAEDVAVYYCQHSWEIPLTFGQGTKLEIK | 
 |  |  |  |  |  |  |  |  |  |  |  | AB-63.4 (antibody, V domains shown) VH: QVQLVQSGAEVKKPGASVKVSCKASGYTFTDYNYHWVRQAPGQGLEWIGFIYPSNGITGYAQKFQGRVTMTVDTSTSTVYMELSSLRSEDTAVYYCARSTVDYFDYWGQGTLVTVSS VL: DIVLTQSPDSLAVSLGERATINCRASQSVSTSTYSYMHWYQQKPGQPPKLLIKYASNLESGVPDRFSGSGSGTDFTLTISSLQAEDVAVYYCQHSWEIPLTFGQGTKLEIK | Fold affinity improvement over parental Ab (AB-H63) (human CD33 [7]): 3.79 fold; Kd (human CD33 [7]): 0.718 nM; Maximal Downregulation (% CD33 remaining) [15]: 17.6%; Receptor downregulation (EC50) [15]: 0.0691 nM; koff (human CD33 [16]): 0.000581 s⁻¹; kon (human CD33 [16]): 809000 M⁻¹ s⁻¹
